The assay concerns the target T1, endogenous NXF1 in mouse neuronal N2A cells (mouse (endogenous in mouse neuronal N2A …, UniProt Q99JX7 2-618)).
T1 construct: Detected with anti-NXF1 clone 53H8 after anti-FLAG immunoprecipitation; also called TAP/NXF1; nuclear export factor 1
T1 sequence (looked up): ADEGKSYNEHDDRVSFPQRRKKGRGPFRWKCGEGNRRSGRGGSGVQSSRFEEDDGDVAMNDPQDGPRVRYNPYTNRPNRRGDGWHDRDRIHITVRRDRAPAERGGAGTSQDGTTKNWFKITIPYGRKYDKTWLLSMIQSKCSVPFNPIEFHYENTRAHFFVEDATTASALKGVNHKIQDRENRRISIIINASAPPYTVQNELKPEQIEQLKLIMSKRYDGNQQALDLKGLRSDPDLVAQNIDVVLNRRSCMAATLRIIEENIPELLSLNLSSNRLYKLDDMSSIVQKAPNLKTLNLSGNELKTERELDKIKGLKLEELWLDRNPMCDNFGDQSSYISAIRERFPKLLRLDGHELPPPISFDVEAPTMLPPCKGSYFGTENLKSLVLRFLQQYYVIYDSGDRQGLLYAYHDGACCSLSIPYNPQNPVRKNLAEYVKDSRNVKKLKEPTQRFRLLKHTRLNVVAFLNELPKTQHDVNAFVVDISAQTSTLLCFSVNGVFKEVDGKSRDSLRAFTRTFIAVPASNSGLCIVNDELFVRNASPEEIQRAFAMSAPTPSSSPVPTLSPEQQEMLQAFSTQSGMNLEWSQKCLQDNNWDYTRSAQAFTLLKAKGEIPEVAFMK
The experiment in a line: anti-FLAG co-immunoprecipitation of endogenous NXF1 from transfected N2A cells (FIG. 6).

Description: Co-immunoprecipitation of endogenous NXF1 is assessed using anti-NXF1 antibodies;

B1: FLAG-tagged SRSF1 11-196 quadruple mutant (SRSF1-m4) (other)
chain: AGNNDCRIYVGNLPPDIRTKDIEDVFYKYGAIRDIDLKNRRGGPPFAFVEFEDPRDAEDAVYGRDGYDYDGYRLRVEFPASGAGTGRGGGGGGGGGAPRGRYGPPSAASENRVVVSGLPPSGSWQDLKDHMREAGDVCYADVYRDGTGVVEFVRKEDMTYAVRKLDNTKFRSHEGETAYIRVKVDG
notes: also called p3xFLAG/SRSF1 (11-196)-m4; dominant negative mutant SRSF1-m4; not shown: FLAG tag from the p3xFLAG vector (Sigma)
For B1, the binding result is “no binding”.

For the origin of these results see US20190194660A1 (UNIVERSITY OF SHEFFIELD, published 2019).
